For 1 molecule, Kd results are on record in patent publication US20250249118A1 (Eli Lilly, published 2025).

One test concerns the target T1, cynomolgus TfR ECD (cynomolgus).
T1 chain: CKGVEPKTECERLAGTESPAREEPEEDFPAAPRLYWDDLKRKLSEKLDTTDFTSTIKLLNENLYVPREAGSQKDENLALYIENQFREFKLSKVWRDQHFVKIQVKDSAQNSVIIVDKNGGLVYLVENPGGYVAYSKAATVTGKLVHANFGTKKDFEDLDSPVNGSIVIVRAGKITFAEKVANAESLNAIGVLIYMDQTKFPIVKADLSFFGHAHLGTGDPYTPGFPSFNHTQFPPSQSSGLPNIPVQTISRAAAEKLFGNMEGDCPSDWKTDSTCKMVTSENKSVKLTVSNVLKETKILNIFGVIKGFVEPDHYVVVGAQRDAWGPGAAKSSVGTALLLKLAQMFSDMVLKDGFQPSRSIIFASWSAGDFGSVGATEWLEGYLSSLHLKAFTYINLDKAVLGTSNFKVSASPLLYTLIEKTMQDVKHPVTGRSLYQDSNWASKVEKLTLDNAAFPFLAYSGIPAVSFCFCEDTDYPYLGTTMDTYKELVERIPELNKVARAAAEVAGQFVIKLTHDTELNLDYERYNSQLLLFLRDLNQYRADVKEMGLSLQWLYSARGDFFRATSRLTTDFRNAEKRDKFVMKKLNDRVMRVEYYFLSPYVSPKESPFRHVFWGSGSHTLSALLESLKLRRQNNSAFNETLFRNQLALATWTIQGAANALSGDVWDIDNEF
In words: SPR, Biacore 8K, 37 C, TfR ECD amine-coupled on CM4 chip, TBP as analyte, 2-state model; SEM 2.565 nM, n = 3. How it is done: (§1) Target human and cynomologus TfR ECD's were immobilized on a CM4 chip (Cytiva P/N 29104989) using standard NHS-EDC amine coupling. The TfR binding proteins were prepared at a final concentration of 0.3, 0.1, 0.033, 0.01, 0.0033, 0.001, 0.00033, 0.0001 μM respectively by dilution of stock solution into running buffer.
(§2) Binding analysis was performed in a multi-cycle kinetics manner. Each analysis cycle consists of (1) injection of the lowest to highest concentration proteins over all Fc at 50 μL/min for 140 seconds followed by return to buffer flow for 400 seconds to monitor dissociation phase; (2) regeneration of chip surfaces with injection of 3M magnesium chloride, for 30 seconds at 100 μL/min over all cells; and (3) equilibration of chip surfaces with a 50 μL (30-sec) injection of HBS-EP+. Data were processed using standard double-referencing and fit to a 2-state binding model using Biacore 8K Evaluation software, to determine the association rate (kₒₙ, M⁻¹ s⁻¹ units), dissociation rate (koff, s⁻¹ units), and Rₘₐₓ (RU units). The equilibrium dissociation constant (KD) is calculated from the relationship KD=koff/kₒₙ, and is in molar units.
Background: SPR reads the build-up and loss of mass on a sensor chip optically.

Another test deals with T2, human TfR ECD (human, UniProt P02786 89-760).
T2 construct: extracellular domain; also called human Transferrin Receptor 1 extracellular domain
The experiment in a line: SPR, Biacore 8K, 37 C, TfR ECD amine-coupled on CM4 chip, TBP as analyte, 2-state model; SEM 7.949 nM, n = 3. The protocol:
as §1, §2

B1: TBP4 (One Arm Heteromab 1, A378C) (antibody)
heavy: EVQLVESGGGLVKPGGSLRLSCVASGFTFSSYSMNWVRQAPGKGLEWVSSISSSSSYIYYADSVKGRFTISRDNAKNSLYLQMNSLRAEDTAVYYCARRHGYSNSDAFDNWGQGTLVTVSSASTKGPSVFPLAPCSRSTSESTAALGCLVKDYFPEPVTVSWNSGALTSGVHTFPAVLQSSGLYSLSSVVTVPSSSLGTKTYTCNVDHKPSNTKVDKRVESKYGPPCPPCPAPEAAGGPSVFLFPPKPKDTLMISRTPEVTCVVVDVSQEDPEVQFNWYVDGVEVHNAKTKPREEQFNSTYRVVSVLTVLHQDWLNGKEYKCKVSNKGLPSSIEKTISKAKGQPREPQVSTLPPSQEEMTKNQVSLMCLVYGFYPSDICVEWESNGQPENNYKTTPPVLDSDGSFFLYSVLTVDKSRWQEGNVFSCSVMHEALHNHYTQKSLSLSLG
light: DIQMTQSPSAMSASVGDRVTITCRASQGISHYLVWFQQKPGKVPKRLIYAASSLQSGVPSRFSGSGSGTEFTLTISSLQPEDFATYYCLQHNSYPWTFGQGTKVEIKRTVAAPSVFIFPPSDEQLKSGTASVVCLLNNFYPREAKVQWKVDNALQSGNSQESVTEQDSKDSTYSLSSTLTLSKADYEKHKVYACEVTHQGLSSPVTKSFNRGEC
Fc: ESKYGPPCPPCPAPEAAGGPSVFLFPPKPKDTLMISRTPEVTCVVVDVSQEDPEVQFNWYVDGVEVHNAKTKPREEQFNSTYRVVSVLTVLHQDWLNGKEYKCKVSNKGLPSSIEKTISKAKGQPREPQVYTLPPSQGDMTKNQVQLTCLVKGFYPSDICVEWESNGQPENNYKTTPPVLDSDGSFFLASRLTVDKSRWQEGNVFSCSVMHEALHNHYTQKSLSLSLG
notes: One-arm heteromab: HC1 with LC1, plus an Fc-only HC2; IgG4 PAA; also called OAH1; copies: 1 + 1 + 1
The Kd is a measure of binding affinity in units of concentration. Lower therefore signals higher affinity. On to B1, for which the Kd with cynomolgus TfR ECD is 300 nM; with human TfR ECD, 154 nM.
